Patent US20220098635A1

Tests used:
Thiolated streptavidin [1] = target: Thiolated streptavidin (UniProt P22629); test: single-molecule conductance distribution (counts against Log G, fitted peaks); bis-biotinylated phi29 polymerase in a junction of palladium electrodes coated with thiolated streptavidin
Thiolated streptavidin [2] = target: Thiolated streptavidin (UniProt P22629); test: single-molecule conductance distribution (counts against Log G, fitted peaks); two-Avitag phi29 polymerase without flexible linker wired with biotin-streptavidin; the same distribution as 52 in Fig. 5B

Chain of Thiolated streptavidin (P22629 37-163 limits assumed): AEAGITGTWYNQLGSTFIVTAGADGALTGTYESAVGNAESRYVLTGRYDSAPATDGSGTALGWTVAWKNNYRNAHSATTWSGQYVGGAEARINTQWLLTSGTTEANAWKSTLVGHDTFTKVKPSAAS

bis-biotinylated ϕ29 polymerase (from UniProt P03680 1-111; P03680 112-279; P03680 280-575) (enzyme)
conductance peak (circled feature 53) (Thiolated streptavidin [1]): 3.98 nS
conductance peak (circled feature 1103) (Thiolated streptavidin [2]): 3.98 nS
